{
  "source": "paper PMC8799529",
  "origin": "cited, not measured here",
  "molecular_target": "p38 MAPK (Homo sapiens) (UniProt Q16539)",
  "sequence (Q16539 2-360)": "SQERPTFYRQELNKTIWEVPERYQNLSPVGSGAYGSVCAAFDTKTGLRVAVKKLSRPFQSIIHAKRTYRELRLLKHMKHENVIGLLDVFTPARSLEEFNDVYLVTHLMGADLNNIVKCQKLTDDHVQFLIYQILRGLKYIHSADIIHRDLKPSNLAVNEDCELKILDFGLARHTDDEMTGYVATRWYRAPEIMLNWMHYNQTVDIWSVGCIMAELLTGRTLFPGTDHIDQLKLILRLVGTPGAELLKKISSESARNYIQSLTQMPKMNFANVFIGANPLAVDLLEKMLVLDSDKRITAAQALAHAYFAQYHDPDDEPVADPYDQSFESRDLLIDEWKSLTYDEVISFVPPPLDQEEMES",
  "data": [
    {"substance": "MK2 (from UniProt P49137)", "values": [
      {"measurement": "Kd", "value": 2.5, "unit": "nM"}
    ]}
  ]
}
